Data published in patent publication US10640563B2, “Anti-B7-H3 antibodies and antibody drug conjugates” (AbbVie Inc., priority 2016, dated 2020).
Positions count from the first letter of the chain named.

B1: huAb18v6-CZ (conjugate)
VH: EVQLVQSGAEVKKPGSSVKVSCKASGYSFTSYTIHWVRQAPGQGLEWMGYINPNSRNTDYAQKFQGRVTLTADKSTSTAYMELSSLRSEDTAVYYCARYSGSTPYWYFDVWGQGTTVTVSS
VL: EIVLTQSPDFQSVTPKEKVTITCRASSSVSYMNWYQQKPDQSPKLLIKATSNLASGVPSRFSGSGSGTDFTLTINSLEAEDAATYYCQQWSSNPLTFGQGTKLEIK
B2: huAb18v7-CZ (conjugate)
VH: B1 VH
VL: B1 VL with L45P, L46W, K48Y, G63V, G65V, F70H
B3: huAb18v9-CZ (conjugate)
VH: B1 VH with M48I, A61N, Q65K, G66D, V68T, K74R
VL: B1 VL with L45P, L46W, K48Y, G63V, G65V, F70H
B4: huAb3v6-CZ (conjugate)
VH: EVQLVQSGAEVKKPGSSVKVSCKASGYTFSSYWMHWVRQAPGQGLEWIGLIHPDSGSTNYNEMFKNRATLTVDRSTSTAYVELSSLRSEDTAVYFCAGGGRLYFDYWGQGTTVTVSS
VL: DVVMTQSPLSLPVTPGEPASISCRSSQSLVHSNGDTYLRWYLQKPGQSPQLLIYKVSNRFSGVPDRFSGSGSGTDFTLKISRVEAEDVGVYYCSQSTHVPYTFGGGTKVEIK
B5: chAb14-CZ (conjugate)
VH: EVKLVESGGGLVKPGGSLKLSCAASGFTFSSYGMSWVRQTPEKRLEWVATISGGGTNTYYPDSVEGRFTISRDNAKNFLYLQMSSLRSEDTALYYCARHYGSQTMDYWGQGTSVTVSS
VL: DIQMTQSPASLSASVGETVTITCRTSGNIHNYLTWYQQKQGKSPQLLVYNAKTLADGVPSRFSGSGSGTQFSLKINSLQPEDFGSYYCQHFWSIMWTFGGGTKLEIK
B6: chAb11-CZ (conjugate)
VH: EVKLVESGGGLVQPGGSLRLSCATSGFTFTNYYMSWVRQPPGKALEWLGFIRNKANDYTTEYSASVKGRFTISRDNSQSILYLQMNTLRAEDSATYYCARESPGNPFAYWGQGTLVTVSA
VL: DIVMTQSPSSLTVTAGEKVTMTCKSSQSLLNSGTQKNFLTWYQQKPGQPPKLLIYWASTRESGVPDRFTGSGSGTDFTLTISSVQAEDLAVYFCQNDYIYPLTFGAGTKLELK
B7: chAb2-CZ (conjugate)
VH: QVQLQQPGAELVKPGASVKLSCKASGYTFTSYWMHWVKQRPGQGLEWIGMIHPDSGTTNYNEKFRSKATLTVDKSSSTAYMQLSSLTSEDSAVYYCAVYYGSTYWYFDVWGTGTTVTVSS
VL: DVVMTQTPLSLPVSLGDQAYISCRSSQSLVHINGNTYLHWYRQKPGQSPKLLIYKVSNRFSGVPDRFSGSGSGTDFTLKISRVEAEDLGVYFCSQSTHFPFTFGSGTKLEIK
B8: chAb16-CZ (conjugate)
VH: EVKLLESGGGLVQPGGSLKLSCAASGFDFSRYWMSWVRQAPGKGLEWIGEINPDSSTINYTPSLKDKFIISRDNAKNTLYLQMSKVRSEDTALYYCARPGFGNYIYAMDYWGQGTSVTVSS
VL: DIQMTQTTSSLSASLGDRVTINCRASQDISNFLNWYQQKPDGTVKLLIYYTSRLYLGVPSRFSGSGSGTDYSLTISNLEQEDIATYFCQQGNTLPPTFGGGTKLEIK
B9: chAb6-CZ (conjugate)
VH: QVQLQQSGAELMKPGASVKISCKATGYTFSRYWIEWVKQRPGHGLEWIGEILPGSGSTNYNEKFKGKATFTADTSSNTAYMQVSSLTSEDSAVHYCARRGYGYVPYALDYWGQGTSVTVSS
VL: B8 VL with D1E, N22S, F32S, K45N, L56S, P96Y
B10: chAb4-CZ (conjugate)
VH: QVQLQQPGAELVKPGASVKLSCKASGYSFTSYWMHWVKQRPGQGLEWIGMIHPNSGSNNYNEKFKSKATLTVDKSSNTAYMQLSSLTSEDSAVYYCARRLGLHFDYWGQGTTLTVSS
VL: DIVMTQSQKFMSTPVGDRVSITCKASQNVGTAVAWYQQKPGQSPKLLIYSASNRYTGVPDRFTGSGSGTDFTLTISNMQSEDLADYFCQQYSSYPYTFGGGTKLEIK
B11: chAb2 (conjugate)
VH: B7 VH
VL: B7 VL
modifications: conjugated payload not specified; Synthetic chAb2 VH amino acid sequence; Synthetic chAb2 VL amino acid sequence
B12: chAb6 (conjugate)
VH: B9 VH
VL: B8 VL with D1E, N22S, F32S, K45N, L56S, P96Y
B13: chAb16 (conjugate)
VH: B8 VH
VL: B8 VL
modifications: conjugated drug; Synthetic chAb16 VH amino acid sequence; Synthetic chAb16 VL amino acid sequence

Test system: HCC38 cell line
Assay: Cell cytotoxicity of ADCs in HCC38 cell line
Format: cell-based
Details: Table 10; CZ conjugates
Procedure: The humanization of chAb18 generated 10 variants (described above in Table 9) that retained binding to human and cyno B7-H3 as assessed by FACS (the method of which is described above in Example 6). These variants were further characterized for binding by SPR and were successfully conjugated to the Bcl-xL inhibitor synthon CZ using Method A (described above) and assessed for cell cytotoxicity as described in Example 7. The parental chAb18 from which the variants were derived was also tested as a comparator. All humanized variants had similar binding properties as assessed by biacore, and retained binding activity to cell surface expressed as conjugates with the CZ synthon. The cytotoxicity of all of the variants as CZ synthons were similar to the chAb18 from which they were derived.
Humanized chAb18 variants were conjugated to the CZ synthon and tested for cytotoxicity in HCC38 cell line.

Molecule	IC50 [nM]
B1	0.14
B2	0.03
B3	0.9

Same assay, conditions: Table 14; CZ conjugates

Molecule	IC50 [nM]
B4	0.13

Test system: HCC38 (breast cancer) cells
Assay: In vitro cell viability assay (CellTiter-Glo), HCC38
Format: cell-based, human
Details: ADC with synthon CZ; HCC38 breast cancer cells; viability after 5 days; read-out: Cytotoxicity (HCC38 cell line IC50nM)
Procedure: (§1) Nine anti-B7-H3 chimeric antibodies were conjugated to the Bcl-xL inhibiting (Bcl-xLi) synthon CZ (Example 2.1) using conjugation Method A described below. The resulting ADCs (anti-B7-H3 antibodies conjugated to synthon CZ) were tested for binding to cell surface human B7-H3 by FACS (as described in Example 6) and for cell cytotoxicity in cell lines expressing B7-H3. […] Table 6 provides cell surface binding and cytotoxicity activity of anti-B7-H3 chimera ADCs against breast cancer cell HCC38 expressing human B7-H3.
The tumor cell lines HCC38 (breast cancer), NCI-H1650 (NSCLC) and NCI-H847 (small cell lung cancer cell line) were obtained from American Type Culture Collection (ATCC). Cells were grown in 96-well culture plates using recommended growth media overnight at a density of 5×10^3 (HCC38) or 20×10^3 (NCI-H847) or 40×10^3 (NCI-H1650) per well. The following day, treatments were added in fresh media to triplicate wells. Cellular viability was determined 5 days later using the CellTiter-Glo Luminescent Cell Viability Assay kit (Promega), as directed in the manufacturer's protocol. Cell viability was assessed as percentage of control untreated cells.

Molecule	IC50 [nM]
B5	2.01
B6	2.34
B7	4.77
B8	21.9
B9	81
B10	0.26

Same assay, conditions: antibody conjugated to synthon CZ

Molecule	cytotoxicity in cells expressing human B7-H3 (in words)
B11	weak cytotoxicity
B12	weak cytotoxicity
B13	weak cytotoxicity

Test system: NCI-H146 cells
Assay: In vivo xenograft model of small cell lung cancer (NCI-H146)
Design: species or system mice
Details: Table 11; 6 mg/kg/IP/QDx1

Molecule	TGD (%)	TGImax (%)
B1	45	86
B2	42	87
B3	35	83

Same assay, conditions: Table 15; 6 mg/kg/IP/QDx1

Molecule	TGD (%)	TGImax (%)
B4	88	91

Test system: not listed separately
Assay: Size exclusion chromatography, % aggregate of ADC
Format: physicochemical
Details: ADC with synthon CZ, conjugation Method A
Procedure: The DAR and percentage aggregation of ADCs synthesized were determined by LC-MS and size exclusion chromatography (SEC), respectively.
Size exclusion chromatography was performed using a Shodex KW802.5 column in 0.2 M potassium phosphate pH 6.2 with 0.25 mM potassium chloride and 15% IPA at a flow rate of 0.75 ml/min. The peak area absorbance at 280 nm was determined for each of the high molecular weight and monomeric eluents by integration of the area under the curve. The % aggregate fraction of the conjugate sample was determined by dividing the peak area absorbance at 280 nm for the high molecular weight eluent by the sum of the peak area absorbances at […] of the high molecular weight and monomeric eluents multiplied by 100%.

Molecule	% agg by SEC [%]
B5	1.9
B6	5.6
B7	5.9
B8	2.3
B9	0.5
B10	5.7

Test system: not listed separately
Assay: Observation after conjugation to synthon (Method A)
Format: physicochemical
Details: after conjugation to Bcl-xLi synthon CZ
Procedure: as §1
A solution of Bond-Breaker™ tris(2-carboxyethyl)phosphine (TCEP) solution (10 mM, 0.017 mL) was added to a solution of antibody (10 mg/mL, 1 mL) preheated to 37° C. The reaction mixture was kept at 37° C. for 1 hour. The solution of reduced antibody was added to a solution of synthon (3.3 mM, 0.160 mL in DMSO) and gently mixed for 30 minutes. The reaction solution was loaded onto a desalting column (PD10, washed with Dulbecco's phosphate-buffered saline [DPBS] 3× before use), followed by DPBS (3 mL). The purified ADC solution was filtered through a 0.2 micron, low protein-binding 13 mm syringe-filter and stored at 4° C.

Molecule	Conjugation observation
B5	Clear
B6	Clear
B11	precipitated
B7	Precipitates
B12	precipitated
B8	Precipitates
B9	Precipitates
B13	precipitated
B10	Clear

Test system: not listed separately
Assay: Aggregation of conjugates by SEC
Format: physicochemical
Details: Table 10; CZ conjugates of Ab18 variants

Molecule	% agg by SEC [%]
B1	3.5
B2	3.6
B3	3.8

Same assay, conditions: Table 14; CZ conjugates of Ab3 variants

Molecule	% agg by SEC [%]
B4	4.9
